Assays:
[1] = target: B7 molecules on WEHI 231 cells (B7-1 and B7-2); assay: flow cytometry, titered staining of WEHI 231 cells
[2] = target: B7 molecules on WEHI 231 cells (B7-1 and B7-2); assay: flow cytometry, titered staining of WEHI 231 cells; estimate from detectable concentrations

Chain of mCTLA4-mIgG2am (P09793 36-161): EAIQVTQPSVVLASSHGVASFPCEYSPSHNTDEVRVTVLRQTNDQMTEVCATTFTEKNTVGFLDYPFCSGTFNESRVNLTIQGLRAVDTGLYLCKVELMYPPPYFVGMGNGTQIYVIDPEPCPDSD

## mCTLA4-mIgG2am (from UniProt P09793 36-161) (Fc fusion)
[1]
  concentration at which staining was clearly detectable: 8 ng/mL
[2]
  fold greater binding affinity than mICOS-mIgG2am binding to GL50 on WEHI cells: > 100 fold

From patent publication US20040054158A1
